Target: T1, LexA DNA-binding domain fusion of 4 kDa pro-fragment of human cath-D (human, UniProt P0A7C2 1-202; P07339 21-64, limits assumed)
T1 construct: also called 4 kDa pro-fragment (yeast two-hybrid bait)
T1 sequence (looked up): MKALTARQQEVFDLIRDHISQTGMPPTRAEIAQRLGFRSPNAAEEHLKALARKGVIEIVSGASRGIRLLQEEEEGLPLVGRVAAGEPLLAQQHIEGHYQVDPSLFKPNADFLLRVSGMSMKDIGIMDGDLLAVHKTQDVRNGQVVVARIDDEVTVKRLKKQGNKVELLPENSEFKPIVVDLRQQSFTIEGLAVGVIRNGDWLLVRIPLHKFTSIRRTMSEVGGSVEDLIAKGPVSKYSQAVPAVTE
Test: yeast two-hybrid

B1: B42 activation domain fusion of LRP1β (307-479) (yeast two-hybrid clone, pYESTrp2-LRP1β (307-479)) (other, not shown: large carriers)
chain: PSGMPTCRCPTGFTGPKCTQQVCAGYCANNSTCTVNQGNQPQCRCLPGFLGDRCQYRQCSGYCENFGTCQMAADGSRQCRCTAYFEGSRCEVNKCSRCLEGACVVNKQSGDVTCNCTDGRVAPSCLTCVGHCSNGGSCTMNSKMMPECQCPPHMTGPRCEEHVFSQQQPGHIA
notes: also called the clone isolated in the screen
B1: no binding.

Source: patent EP2045266A1 (INSERM (Institut National de la Santé et de la Recherche …, dated 2009)
